Reference: patent publication US20250243286A1 (SIXPEAKS BIO, published 2025)
Read-outs that look alike come from different tables or passages of the source.

T1: human ActRIIB (human, UniProt Q13705 19-137, limits assumed)
T1 construct: antigen in MSD-SET; also called ACVR2B; ActR2B
T1 sequence: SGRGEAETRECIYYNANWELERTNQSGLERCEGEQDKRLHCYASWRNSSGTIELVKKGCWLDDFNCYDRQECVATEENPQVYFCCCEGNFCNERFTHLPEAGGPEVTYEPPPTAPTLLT


Tests used:
[1] = biological target: T2, ActRIIA and ActRIIB (on TGFB/SMAD SBE Reporter HEK293 cells) (human); test: cell-based or functional assay
human ActRIIA [2] = biological target: T3, human ActRIIA (human, UniProt P27037 20-135, limits assumed); test: MSD-SET
T3 construct: antigen in MSD-SET; also called ACVR2A; ActR2A
T3 sequence (P27037 20-135 limits assumed): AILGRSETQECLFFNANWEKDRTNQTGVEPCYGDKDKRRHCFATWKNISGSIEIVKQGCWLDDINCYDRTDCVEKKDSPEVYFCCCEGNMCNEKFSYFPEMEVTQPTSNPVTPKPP

human ActRIIA [3] = biological target: T3, human ActRIIA; test: MSD-SET; remark: listed apart in the source
[4] = biological target: T2, ActRIIA and ActRIIB (on TGFB/SMAD SBE …); test: cell-based or functional assay; remark: listed apart in the source
human ActRIIA [5] = biological target: T3, human ActRIIA; test: MSD-SET; remark: listed apart in the source
human ActRIIB [6] = biological target: T1, human ActRIIB; test: MSD-SET; human ActRIIB; full-length IgG (Table 4B)
human ActRIIB [7] = biological target: T1, human ActRIIB; test: MSD-SET; human ActRIIB; full antibody, separate cross-reactivity study (Table 6A)
human ActRIIB [8] = biological target: T1, human ActRIIB; test: MSD-SET
human ActRIIB [9] = biological target: T1, human ActRIIB; test: MSD-SET, preliminary
[10] = biological target: T2, ActRIIA and ActRIIB (on TGFB/SMAD SBE …); test: cell-based or functional assay; remark: listed apart in the source
human ActRIIB [11] = biological target: T1, human ActRIIB; test: MSD-SET; remark: listed apart in the source
[12] = biological target: T2, ActRIIA and ActRIIB (on TGFB/SMAD SBE …)
[13] = biological target: T2, ActRIIA and ActRIIB (on TGFB/SMAD SBE …); remark: listed apart in the source
human ActRIIA [14] = biological target: T3, human ActRIIA; test: MSD-SET; remark: listed apart in the source
[15] = biological target: T2, ActRIIA and ActRIIB (on TGFB/SMAD SBE …); test: cell-based or functional assay; remark: listed apart in the source
human ActRIIB [16] = biological target: T1, human ActRIIB; test: MSD-SET; Fab, not IgG
human ActRIIB [17] = biological target: T1, human ActRIIB; test: MSD-SET, Fab KD over IgG KD
Pig ActRIIA = Pig ActRIIA (pig, UniProt F1S0H6 20-135); test: MSD-SET
Dog ActRIIA = Dog ActRIIA (dog, UniProt A0A8I3MYH0 20-135); test: MSD-SET
human ActRIIB [18] = biological target: T1, human ActRIIB; test: MSD-SET; remark: listed apart in the source
mouse ActRIIA = mouse ActRIIA (mouse, UniProt P27038 20-135, limits assumed); test: MSD-SET
mouse ActRIIA, sequence (P27038 20-135 limits assumed): as the sequence (P27037 20-135 limits assumed) above, with K20R, V73I counted along it

IC50, Activin SMAD RGA [1] [nM]	IC50, Myostatin SMAD RGA [1] [nM]	Kd (human ActRIIA [2]) [nM]	Kd (human ActRIIA [3]) [nM]	IC50, Activin SMAD RGA [4] [nM]	IC50, Myostatin SMAD RGA [4] [nM]	IC90, Activin SMAD RGA [4] [nM]	IC90, Myostatin SMAD RGA [4] [nM]	Kd (human ActRIIA [5]) [nM]	Kd (human ActRIIB [6]) [nM]	Kd (human ActRIIB [7]) [nM]	Kd (human ActRIIB [8]) [nM]	Kd (human ActRIIB [9]) [nM]	IC50 fold difference (Fab:IgG), Activin SMAD RGA [1] [fold]	IC50 fold difference (Fab:IgG), Myostatin SMAD RGA [1] [fold]	Kd (human ActRIIB [16]) [nM]	Kd (Pig ActRIIA) [nM]	Kd (Dog ActRIIA) [nM]	Kd (mouse ActRIIA) [nM]	Binder	further results
0.29	0.33	0.005	0.0218	0.266	0.4	1.9	3.89	0.005	0.006	0.0044	–	–	–	–	–	–	–	–	Antibody Wurschdsalat (antibody, V domains shown, full-length IgG) VH: QVQLVQSGAEVKKPGASVKVSCKASGYTFTSSYINWVRQAPGQGLEWMGTINAVSGSTSYAQKFQGRVTMTRDESISTAYMELSRLRSDDTAVYYCARGGWFDYWGQGTLVTVSS VL: QSALTQPASVSGSPGQSITISCTGTSSDVGSYNYVNWYQQHPGKAPKLMIYGVSKRESGVSNRFSGSKSGNTASLTISGLQAEDEADYYCGTFAGGKYYGVFGGGTKLTVL	–
–	–	–	–	–	0.7	2.27	14.4	–	–	–	0.0029	0.0277	–	–	–	–	–	–	Antibody Ofaschlupfer (antibody, V domains shown, full-length IgG) VH: QVQLVQSGAEVKKPGSSVKVSCKASGYTFTSSYINWVRQAPGQGLEWMGTINAVSGSTSYAQKFQGRVTITADTSTSTAYMELSSLRSEDTAVYYCARGGWFDYWGQGTLVTVSS VL: QSALTQPRSVSGSPGQSVTISCTGTSSDVGSKNYVNWYQQHPGKAPKLMIYGVSKRESGVPDRFSGSKSGNTASLTISGLQAEDEADYYCGTFAGGKYYGVFGGGTKLTVL	IC50 fold difference to bimagrumab, Myostatin SMAD RGA [4]: 0.8 fold; IC90 fold difference to bimagrumab, Activin SMAD RGA [4]: 4.1 fold; IC90 fold difference to bimagrumab, Myostatin SMAD RGA [4]: 0.9 fold; IC95, Activin SMAD RGA [4]: 4.97 nM; IC95, Myostatin SMAD RGA [4]: 55.2 nM; IC95 fold difference to bimagrumab, Activin SMAD RGA [4]: 7.6 fold; IC95 fold difference to bimagrumab, Myostatin SMAD RGA [4]: 1 fold; IC99, Activin SMAD RGA [4]: 28.1 nM; IC99, Myostatin SMAD RGA [4]: 1240 nM; IC99 fold difference to bimagrumab, Activin SMAD RGA [4]: 29.6 fold; IC99 fold difference to bimagrumab, Myostatin SMAD RGA [4]: 2.2 fold; IC50, Activin SMAD RGA [10]: 0.32 nM; IC50 fold difference to bimagrumab, Activin SMAD RGA [10]: 1 fold; IC90, Activin SMAD RGA [10]: 3.02 nM; IC90 fold difference to bimagrumab, Activin SMAD RGA [10]: 2.1 fold; IC95, Activin SMAD RGA [10]: 7.07 nM; IC95 fold difference to bimagrumab, Activin SMAD RGA [10]: 21.8 fold; IC99, Activin SMAD RGA [10]: 47.8 nM; IC99 fold difference to bimagrumab, Activin SMAD RGA [10]: 147 fold; Kd (human ActRIIB [11]): 0.0029 nM
0.13	0.26	0.015	0.0123	0.139	0.211	2.16	5.37	0.015	0.005	0.0043	–	–	–	–	–	–	–	–	Antibody Hefaknöpfla (antibody, V domains shown, full-length IgG) VH: QVQLVQSGAEVKKPGASVKVSCKASGYTFTSSYINWVRQAPGQGLEWMGTINAVSGSTSYAQKFQGRVTMTRDTSISTAYMELSRLRSDDTAVYYCARGGWFDYWGQGTLVTVSS VL: QSALTQPASVSGSPGQSITISCTGTSSDVGSKNYVNWYQQHPGKAPKLMIYGVSKRESGVSNRFSGSKSGNTASLTISGLQAEDEADYYCGTFAGGKYYGVFGGGTKLTVL	IC50 (read off the curve); Myostatin-stimulated SMAD reporter gene assay [12]: 0.3 nM; IC50 (read off the curve); Activin-stimulated SMAD reporter gene assay [13]: 0.2 nM; Kd (human ActRIIA [14]): 0.015 nM; IC50 [nM] (assay not given) [15]: 0.011 nM; IC50 fold difference to bimagrumab (assay not given) [15]: 27 fold; IC90 [nM] (assay not given) [15]: 1.6 nM; IC90 fold difference to bimagrumab (assay not given) [15]: 4.11 fold
6.19	7.85	–	–	–	–	–	–	0.047	–	–	–	–	20.5	20.2	0.36	–	–	–	Duuranad Fab (Fab, V domains shown, Fab) VH: QVQLVQSGAEVKKPGASVKVSCKASGYTFTSSYINWVRQAPGQGLEWMGTINAVSGSTSYAQKFQGRVTMTRDTSISTAYMELSRLRSDDTAVYYCARGGWFDYWGQGTLVTVSS VL: QSALTQPASVSGSPGQSITISCTGTSSDVGSFNYVNWYQQHPGKAPKLMIRGVSKRESGVSNRFSGSKSGNTASLTISGLQAEDEADYYCGTFAGGAYYGVFGGGTKLTVL	–
27.9	64.6	–	–	–	–	–	–	–	–	–	–	–	196	199	1.57	–	–	–	Riaba Fab (Fab, V domains shown, Fab) VH: QVQLVQSGAEVKKPGASVKVSCKASGYTFTSSYINWVRQAPGQGLEWMGTINAVSGSTSYAQKFQGRVTMTRDTSISTAYMELSRLRSDDTAVYYCARGGWFDYWGQGTLVTVSS VL: QSALTQPASVSGSPGQSITISCTGTSSDVGSYNYVNWYQQHPGKAPKLMIYGVSKRDSGVSNRFSGSKSGNTASLTISGLQAEDEADYYCGTFAGGKYYGVFGGGTKLTVL	Fold difference (Fab:IgG) (human ActRIIB [17]): 369 fold
–	–	–	–	–	–	–	–	–	–	–	0.0026	0.0197	–	–	–	0.022	0.028	0.04	Soidawürstle Fab (Fab, V domains shown, Fab; also called Soidawüsrstel (Fab)) VH: QVQLVQSGAEVRKPGSSVKVSCKASGYTFTSSYINWVRQAPGQGLEWMGTINPVSGSTSYAQKFQGRVTITADTSTSTAYMELSSLRSEDTAVYYCARGGWFDYWGQGTLVTVSS VL: QSALTQPRSVSGSPGQSVTISCTGTSSDVGSYNRVNWYQQHPGKAPKLMIYGVSKRESGVPDRFSGSKSGNTASLTISGLQAEDEADYYCGTFAGGRYYGVFGGGTKLTVL	Kd (human ActRIIB [18]): 0.011 nM
4.39	6.87	–	–	–	–	–	–	–	–	–	–	–	–	–	–	0.188	0.354	0.239	Bimagrumab Fab (Fab, V domains shown, Fab) VH: QVQLVQSGAEVKKPGASVKVSCKASGYTFTSSYINWVRQAPGQGLEWMGTINPVSGSTSYAQKFQGRVTMTRDTSISTAYMELSRLRSDDTAVYYCARGGWFDYWGQGTLVTVSS VL: QSALTQPASVSGSPGQSITISCTGTSSDVGSYNYVNWYQQHPGKAPKLMIYGVSKRPSGVSNRFSGSKSGNTASLTISGLQAEDEADYYCGTFAGGSYYGVFGGGTKLTVL	–
–	–	–	–	–	–	–	–	–	–	–	0.0138	0.0726	–	–	–	0.029	0.044	0.039	Schwardamaga Fab (Fab, V domains shown, Fab) VH: QVQLVQSGAEVKKPGSSVKVSCKASGYTFTSSYINWVRQAPGQGLEWMGTINAVSGSTSYAQKFQGRVTITADTSTSTAYMELSSLRSEDTAVYYCARGGWFDYWGQGTLVTVSS VL: QSALTQPRSVSGSPGQSVTISCTGTSSDVGSANYVNWYQQHPGKAPKPMIYGVSRRPSGVPDRFSGSKSGNTASLTISGLQAEDEADYYCGTFAGGKYYGVFGGGTKLTVL	Kd (human ActRIIB [18]): 0.01 nM
0.3	0.39	0.009	0.0212	0.272	0.432	2.22	4.45	0.009	0.005	0.0054	–	–	–	–	–	–	–	–	Antibody Duuranad (antibody, V domains shown, full-length IgG) VH: QVQLVQSGAEVKKPGASVKVSCKASGYTFTSSYINWVRQAPGQGLEWMGTINAVSGSTSYAQKFQGRVTMTRDTSISTAYMELSRLRSDDTAVYYCARGGWFDYWGQGTLVTVSS VL: QSALTQPASVSGSPGQSITISCTGTSSDVGSFNYVNWYQQHPGKAPKLMIRGVSKRESGVSNRFSGSKSGNTASLTISGLQAEDEADYYCGTFAGGAYYGVFGGGTKLTVL	–
9.9	13.4	–	–	–	–	–	–	0.125	–	–	–	–	33.8	40.7	0.823	–	–	–	Wurschdsalat Fab (Fab, V domains shown, Fab) VH: QVQLVQSGAEVKKPGASVKVSCKASGYTFTSSYINWVRQAPGQGLEWMGTINAVSGSTSYAQKFQGRVTMTRDESISTAYMELSRLRSDDTAVYYCARGGWFDYWGQGTLVTVSS VL: QSALTQPASVSGSPGQSITISCTGTSSDVGSYNYVNWYQQHPGKAPKLMIYGVSKRESGVSNRFSGSKSGNTASLTISGLQAEDEADYYCGTFAGGKYYGVFGGGTKLTVL	–
